Measurements taken from the supplement of paper PMC9170038.

Test system: K4 kissing-loop RNA reporter
Experiment: apparent KD of K4 kissing-loop reporter; higher = weaker reporter binding
Conditions: Eterna round: R107; input ligand: theophylline 20 uM
Experimental: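 RNA-MaP round R107: designed RNA switches with theophylline, tryptophan, arginine or FMN aptamers are transcribed on-chip within common flanks. They are titrated with a labelled K4 kissing-loop RNA reporter in RNA-MaP buffer (100 mM Tris pH 7.5, 80 mM KCl, 4 mM MgCl2), without ligand or with the indicated ligand. Median apparent KD per design.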
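Also: bound reporter read as fluorescence of individual clusters on recovered sequencing chips by microscopy, with normalized cluster intensities fitted with a binding model.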

| Sequence | apparent KD of K4 kissing-loop reporter [nM] |
| --- | --- |
| CCAUCGCUAUUCGAUACCAGUCAUCACAUCUUUGGUGUGAUAAAGGAGUGAUGUUCCCAAGACCCUUGGCAGCGAAUAGUGAUGG [Theophylline B K4 11] | 172 |
| AGAUUCGACACGGCCGCCACUCGUGGUGGAUUACCUAGUGUCGAAGUUGAGUGAUGUUCAACUACGAGGACCGGGUGUUGAGUCU [KL-XTryp-B7 #analogue] | 211 |
| CCGAUGGGUACAGGAUAUGCCAGUGAUGUUGGUUUAGAUGGACCCAUAAGGAGACACCAGACGGAGGCAGAAGGGUAGCAAGGGA [Isonanti] | 118 |
| AACUCUCAGGCACGCGAGUGAUGUUCGCGCCGAGGACCGGUACGGCCGCCACUCGGGCCUGAGAGAGGUUAUCAAAGAUAGCCAA [whbob_SS_tryp_A] | 204 |
| UUAGCUCUAUAGAGCAAGAGGUAUACUGAUACCAGAGGCUAUAGCCUCCCUUGGCAGCGGAUCGAGUGAUGUUCGUAACCUCAUU [AK4.5 SS Theophylline A] | 724 |
| AACUUAAUUUAUAAGCAGUGAUGUUGCUUACGAGGACCGGUACGGCCGCCACUCGAUCGCAUUUAUGUCUUCAAUUAAUUCAUUA [JR_ExcTryptoA_Sub016] | 237 |
| CGUCACAAACCUAGUCAAGUGAUGUUUGGCCGAGGACCGGUACGGCCGCCACUCGCUCCUGUCACCCAUUCGUGUGUCGCGGACU [theeternabot_exclusion_KL_Trp_A_5] | 473 |
| ACGUCCCGUUUACUCGUGGGUUAGGUCGAUACCAGUAUUCAAACUUACCCUUGGCAGCGACAUGAGUGAUGUUCAUGUGCGAAGA [KL-XTheo-A5 #analogue] | 108 |
| AGAAAGAAGGCGGCCGCCACUCUGAUGGGCGAAAGCCCAUUUUUUUAGCAGUGAUGUUGCUUGUUGAGGACCGGGCCAAAGAAAU [2nd] | 193 |
| UGUCAUUGGUCGGCCGCCACUUCAUAGAGAGUGAUGUUCUUAAAGACGGAUCGAAAGAUCUGUCGAAGGACCGGGACCGAUGACU [FiskerMod 9 - Jieux - Same State - Tryptophan B] | 783 |
| GGAUAGGAUAGAGGAUAUGGUAGUGAUGUUACCAAACUGGUUAAACAUGUCAGAAAACUGGCAUGACCAGAAGGUUGUCCUAUCG [FmnBX 27 U9+U75] | 66.9 |

Same assay, conditions: Eterna round: R107; input ligand: tryptophan 2.4 mM

| Sequence | apparent KD of K4 kissing-loop reporter [nM] |
| --- | --- |
| GCAUCCAUGGCAGGAUAUAGGUUCGUGGAGUGAUGUUCCAUAACCCGAGUGAUGUUCGUUAUCCACCUAGAAGGGCCAUGGAUGC [whbob_Ex_FMNB__2th211] | 184 |
| GGUAGCAUGGCGGCCGCCACUCUUCAUUAGUGAUGUUAAUGCCGAGUGGGCAAACUCCGCCAGGAGAGGACCGGGCCAUGCUACC | 244 |
| GUAUAAGUGGGCGAUACCAGCUGUCGGUAGUGAUGUUAUUCAGCAGUCAGGAAGUUCGCUAGCCCUUGGCAGCGCCAGUGGUGAC [theeternabot_exclusion_KL_Theo_B_19] | 341 |
| AGGAAGUGAGAAGGAUAUUACACUCGGAAGCGCUAGUGAUGUUAGCAUAGAAACAAGGGAACAUGGUAAGAAGGUCUUACAAUGA [theeternabot_sameState_KL_FMN_B_2] | 40.1 |
| GCCGUAGAUGGAAGGAGCGAGUCCAAACCAUAUUGCUGAAAAUUCGAGUGAUGUUCGUAAGCUCAGGUAGGUCGCCAUCUACGGC | 187 |
| GAUUCAGUGAUGUUGGAAGGCGAGCGGGAUACCAGCCGAGACUCAGGCCCUUGGCAGCCCACAUAUCCCAGGUAGAUAGUCGAUC [Same State - Theophylline A (Freestyle 9)] | 160 |
| GGAUUGCCAGUGAUGUUGGCAUAAUCUGAAGGAGCGCGUGAAAACGCAGGUAGGUCGCAGAACCUUGCCAACUGAUCGAAAGAUC [Ex Arginine A K4 30] | 150 |
| GAACCAGAGGUUGCUGCGGGUUCCAGAGAUACCAGCCGUAUUGAAGGCCCUUGGCAGCUCGAGUGAUGUUCGAGCCGCCUCUGGC [Antius] | 103 |
| AAGAGGUAGGCGGCCGCCACUAGUUGUGAACACAUACAAGCCAGUGAUGUUGGUAUGGUGGGCGGUAGGACCGGGCCUACCUGAA [Exclusion - Tryptophan B (Freestyle 17)] | 243 |
| GUGUGGAUCCGAAGGAGCGUCCGCAAUCCAGUGAUGUUGGGUGUUGGUUUUAGUAGACGAGGACAGGUAGGUCGCGGAUUUACAA [Same State Arginie B GF 23] | 105 |
| UUACGAGUGAUGUUCGAAUAAAUCCAUUCAGAGGAUAUAGUAUUAACUAGAAGGCUGAAACCAACUUCGAGUCAUGUUCGAGGAU [Same State FMN A GF 2] | 269 |
| GGGCCUCUGGCUGAUACCAGUGAUAAAGGGUAAGAGACAGGGAGUGAUGUUCCCUUUAGCCACCCUUGGCAGCAGUUUAAGUUUG [Exclusion Theophylline B GF 18] | 77.3 |
| AGUGAUGUGGGAAGGAGCGGUACAUGACUUCAGUGAUGUUGAAGUGAUGAUUUAGUGAUGUGCCAGGUAGGUCGCCUAGAUGUUA [KL-XARG-B7] | 51 |
| AGUGAAGUUAGUGAUGUGUGAGUUUGGGAAGGAGCGCCGAGAACGGCAGGUAGGUCGCCCAGUGAUGUUGGUGUAAAGAUGAGAG [whbob_Ex_Arginine_A_2t121] | 208 |
| AAUUGAGUGACGGCCGCCACUAGAGUGAUUUUUUUGUUUGAGUGAUGUUUUGAUGUUUGAUGUUGUAGGACCGGGUUGAGUGAUG [vvrvmullin] | 291 |
| AUUAUAAAGGCGGCCGCCACUAGUGAUGUUAGUGACUUAUGUAUUAUCAUAAGAAUAAAAUAAAAUAGGACCGGGCCAAAAUAUU [AstrosExTryB#3] | 483 |
| CCUCACGUAGGACUAGUGAUGUUAGACUACCGAGGACCGGUACGGCCGCCACUCGUCGUACAAGAUAACCUUCCGCCAGUAUACG | 140 |
| UAAUAUAACCGAAGGAGCGCGUGGGCGCAGUGAUGUUGCGCCCGACAUCACUUCAACUAAACGCAGGUAGGUCGCGGUAAUAAUA [Arginine B (Excl) V1] | 98.4 |
| GUGAAUGGCUGAGCAGCCGUGGUACGAGAUACCAGUGAUUUCGAUCACCCUUGGCAGCUCGGCGUGAGUGAUGUUCACGCUACAC [Theo A SS t12a] | 270 |
| AUUCAUGAGUGAUGUUCAUCGGCAGGAGAUACCAGCGAGUUAACCCGCCCUUGGCAGCUCAAGUAUAGGGACUCUGGCAUCGCCU [theeternabot_exclusion_KL_Theo_A_18] | 369 |
| CAUGGAGUGAUGCUCCAUGAUCGGGCUUGGCAGGAUAUGGGAUCUUCCAGAAGGGCCGAUCCCAGCGAGUGAUGUUCGCUGGUCU [Exclusion FMN A GF 27] | 108 |
| AGGUACAAAAGUACCGCUAGAUCCACGGAAGGAGCGGCCGAAAGGCCAGGUAGGUCGCCGGGCAGUGAUGUUGCCGGAUCUAGCA [Omei KL Arginine A SS A v2] | 169 |

| Sequence | apparent KD of K4 kissing-loop reporter [nM] |
| --- | --- |
| AAGUGAUGUUGUAGUGAUGUUGUGAUGUUGCAGGAUAUAUAGUGAUGUAGAAGGGUAUGUGCAGUUUUCAUAUUUGAGUGUUGAU [mkkhmullin] | 64.2 |
| ACACAGAGUUGCCGAGUGAUGUUCGGCUUACGAGGACCGGUACGGCCGCCACUCGUUACUCUGUGUUUUGGACACCAAGGCGUCG [Tionzaanon] | 201 |
| UGGAUAUAGUGAUGUUAUAUAGAGAGUGAUACCAGUUUAGAGAAGAACCCUUGGCAGCAUAGAAGAGUAUCAUUGGAGAAGAAUG [ExTheophyl.Aq] | 155 |
| UAGUCCUAGUGAUGGUUAUCACGUGGUGGGCGAGGACCGGUACGGCCGCCACUCGACUUUGCAGUGAUGUUGCAAUCCGGACAAU [Exclusion - Tryptophan A (Freestyle 17)] | 258 |
| GAAGUACAGGCGGCCGCCACUAGUGAUGUUAGUGAUAAAAGAUAAAGUAUAUAUCGGCAUGUAGAUAGGACCGGGCCUGAUGGAG [uiiumullin] | 298 |
| AGUGCCUGCCUUAGCCUUCCCAUCAACUUCCGAGGACCGGUACGGCCGCCACUCGGCCAUCGGGCUAGUGAUGUUACCUGGUGGA [theeternabot_sameState_KL_Trp_A_50] | 224 |
| GUUACGCAUGGAAGGAGCGCUCUCCGGUUUAUUAACACAGUGAUGUUGUGAUUUUACCGAAAGCAGGUAGGUCGCCAUGUGUAAC [Ex Arginine B K4 12] | 372 |
| UGAUACCAGACGGCCGCCACUCCUGCAAGUCAAAGACUUGCUAAGGAAAUCGUCCAGUGAUGUUGGAGGACCGGGUCUGGUAUCU [TrypBX 17 #SwitchBubble #Palindromic #StaticStem] | 899 |
| AAUUCAGUGAUGUUGGAAGGCAAGCGGGAUACCAGCGGAGAAUAACGCCCUUGGCAGCCCAUAUAUCCCAAAUAGAUAAUAGUUC [Same State - Theophylline A (Freestyle 4)] | 337 |
| UAUACGCUAGUGAUGUUGGCGAAGACUGAAGGAGCGUGCGAGAGUACAGGUAGGUCGCAGUCAGACAGAUUGUACCUGUCUUAUG [Arg A SS t10] | 356 |
| CCAUCGCUAUUCGAUACCAGUCAUCACAUCUUUGGUGUGAUAAAGGAGUGAUGUUCCCAAGACCCUUGGCAGCGAAUAGUGAUGG [Theophylline B K4 11] | 250 |
| AGAUUCGACACGGCCGCCACUCGUGGUGGAUUACCUAGUGUCGAAGUUGAGUGAUGUUCAACUACGAGGACCGGGUGUUGAGUCU [KL-XTryp-B7 #analogue] | 448 |
| CCGAUGGGUACAGGAUAUGCCAGUGAUGUUGGUUUAGAUGGACCCAUAAGGAGACACCAGACGGAGGCAGAAGGGUAGCAAGGGA [Isonanti] | 120 |
| AACUCUCAGGCACGCGAGUGAUGUUCGCGCCGAGGACCGGUACGGCCGCCACUCGGGCCUGAGAGAGGUUAUCAAAGAUAGCCAA [whbob_SS_tryp_A] | 250 |
| UUAGCUCUAUAGAGCAAGAGGUAUACUGAUACCAGAGGCUAUAGCCUCCCUUGGCAGCGGAUCGAGUGAUGUUCGUAACCUCAUU [AK4.5 SS Theophylline A] | 433 |
| AACUUAAUUUAUAAGCAGUGAUGUUGCUUACGAGGACCGGUACGGCCGCCACUCGAUCGCAUUUAUGUCUUCAAUUAAUUCAUUA [JR_ExcTryptoA_Sub016] | 195 |
| CGUCACAAACCUAGUCAAGUGAUGUUUGGCCGAGGACCGGUACGGCCGCCACUCGCUCCUGUCACCCAUUCGUGUGUCGCGGACU [theeternabot_exclusion_KL_Trp_A_5] | 297 |
| ACGUCCCGUUUACUCGUGGGUUAGGUCGAUACCAGUAUUCAAACUUACCCUUGGCAGCGACAUGAGUGAUGUUCAUGUGCGAAGA [KL-XTheo-A5 #analogue] | 104 |
| AGAAAGAAGGCGGCCGCCACUCUGAUGGGCGAAAGCCCAUUUUUUUAGCAGUGAUGUUGCUUGUUGAGGACCGGGCCAAAGAAAU [2nd] | 114 |
| UGUCAUUGGUCGGCCGCCACUUCAUAGAGAGUGAUGUUCUUAAAGACGGAUCGAAAGAUCUGUCGAAGGACCGGGACCGAUGACU [FiskerMod 9 - Jieux - Same State - Tryptophan B] | 302 |
| GGAUAGGAUAGAGGAUAUGGUAGUGAUGUUACCAAACUGGUUAAACAUGUCAGAAAACUGGCAUGACCAGAAGGUUGUCCUAUCG [FmnBX 27 U9+U75] | 61.5 |
